Measurements from patent US20190016794A1 (Boehringer Ingelheim, published 2019).
Where “and” joins values, the source holds several entries; their conditions need not be identical. Identical values can stand only once.

T1: recombinant human IL23 (human, UniProt P29460 23-328)
T1 sequence 1: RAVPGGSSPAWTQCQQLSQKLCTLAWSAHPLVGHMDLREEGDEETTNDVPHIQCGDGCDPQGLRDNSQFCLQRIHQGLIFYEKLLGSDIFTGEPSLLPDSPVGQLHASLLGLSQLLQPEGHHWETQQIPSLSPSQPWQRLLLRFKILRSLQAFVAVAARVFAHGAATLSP
T1 sequence 2: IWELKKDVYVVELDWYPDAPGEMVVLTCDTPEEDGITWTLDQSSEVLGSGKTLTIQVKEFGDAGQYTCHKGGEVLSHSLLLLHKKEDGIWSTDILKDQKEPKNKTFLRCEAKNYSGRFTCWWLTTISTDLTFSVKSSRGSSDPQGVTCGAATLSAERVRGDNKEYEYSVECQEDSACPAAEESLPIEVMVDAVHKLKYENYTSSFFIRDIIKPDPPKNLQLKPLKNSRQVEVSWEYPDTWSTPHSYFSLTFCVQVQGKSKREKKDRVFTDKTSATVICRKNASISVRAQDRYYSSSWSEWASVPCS

T2: recombinant cynomolgus IL23 (cynomolgus)
T2 chain 1: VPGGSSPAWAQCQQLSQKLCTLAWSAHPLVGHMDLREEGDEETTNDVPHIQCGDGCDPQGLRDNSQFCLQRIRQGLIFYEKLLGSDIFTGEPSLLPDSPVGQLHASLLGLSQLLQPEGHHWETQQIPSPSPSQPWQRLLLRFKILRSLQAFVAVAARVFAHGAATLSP
T2 chain 2: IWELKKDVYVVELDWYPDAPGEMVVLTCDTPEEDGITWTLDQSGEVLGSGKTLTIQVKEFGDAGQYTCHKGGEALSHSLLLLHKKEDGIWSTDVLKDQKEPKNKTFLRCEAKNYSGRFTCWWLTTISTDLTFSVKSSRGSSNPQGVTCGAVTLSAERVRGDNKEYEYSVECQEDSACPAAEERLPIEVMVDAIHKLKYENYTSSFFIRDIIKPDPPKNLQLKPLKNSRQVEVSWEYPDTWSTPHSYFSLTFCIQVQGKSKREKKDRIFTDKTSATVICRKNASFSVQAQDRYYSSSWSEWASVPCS


Legend:
[1] = target: T1, recombinant human IL23; experiment: cell-based or functional assay
[2] = target: T1, recombinant human IL23; experiment: cell-based or functional assay; remark: listed apart in the source
[3] = target: T1, recombinant human IL23; experiment: cell-based or functional assay; remark: listed apart in the source
[4] = target: T1, recombinant human IL23; experiment: cell-based or functional assay; remark: listed apart in the source
[5] = target: T2, recombinant cynomolgus IL23; experiment: cell-based or functional assay
[6] = target: T1, recombinant human IL23; experiment: cell-based or functional assay; remark: listed apart in the source
[7] = target: T1, recombinant human IL23; experiment: cell-based or functional assay; remark: listed apart in the source
[8] = target: T3, human TNF-alpha (human, UniProt P01375 77-233); experiment: cell-based or functional assay
[9] = target: T3, human TNF-alpha; experiment: cell-based or functional assay; remark: listed apart in the source
[10] = target: cynomolgus TNF-alpha (cynomolgus, UniProt P79337 77-233, limits assumed); experiment: cell-based or functional assay
[11] = target: T3, human TNF-alpha; experiment: cell-based or functional assay; remark: listed apart in the source
[12] = target: T3, human TNF-alpha; experiment: cell-based or functional assay; remark: listed apart in the source
[13] = target: T4, membrane bound TNF-alpha; experiment: flow cytometry, mTNF-transfected CHO cells (geomean)
T4 construct: whole, on cells; also called mTNF; membrane expressed TNF-alpha
Method: (§1) All reagents were prepared in flow cytometry staining buffer (BioLegend). Membrane expressed TNF-alpha transfected cell lines (Jurkat and CHO) and parental cell lines were harvested from tissue culture vessels, washed, counted and resuspended to 1×10̂6 cells/ml in flow cytometry staining buffer. One hundred microliters of the cell suspension was added to 96 well microtiter plates and placed on ice. Titrations of test compounds were prepared and 50 uL was added to the cells. After sixty minute incubation on ice, the cell+test compounds were washed and 50 uL of a secondary antibody (Jackson ImmunoResearch) was added. The samples were incubated in the dark, at 4 C, for 60 minutes, followed by washes. After a final wash the cells were resuspended in 60 uL of fixative (BD Bioscience). Median fluorescence was determined for each sample in a flow cytometer and plotted versus the concentration of the test sample. EC₅₀ values were calculated using the 4 Parameter Logistic enabled by the Excel add-in XLfit (Activity Base software, ID Business Solutions, Ltd.).

[14] = target: T4, membrane bound TNF-alpha; experiment: flow cytometry, mTNF-transfected Jurkat cells (geomean)
Method: as §1

T3 sequence (P01375 77-233 limits assumed): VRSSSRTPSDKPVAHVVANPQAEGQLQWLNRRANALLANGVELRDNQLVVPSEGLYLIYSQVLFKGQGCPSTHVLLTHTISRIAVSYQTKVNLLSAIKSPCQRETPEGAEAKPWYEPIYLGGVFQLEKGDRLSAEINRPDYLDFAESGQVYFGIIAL
cynomolgus TNF-alpha, sequence (P79337 77-233 limits assumed): as the sequence (P01375 77-233 limits assumed) above, with L37V, R44T, T72N, R138L counted along it
T4 sequence (P01375 whole entry): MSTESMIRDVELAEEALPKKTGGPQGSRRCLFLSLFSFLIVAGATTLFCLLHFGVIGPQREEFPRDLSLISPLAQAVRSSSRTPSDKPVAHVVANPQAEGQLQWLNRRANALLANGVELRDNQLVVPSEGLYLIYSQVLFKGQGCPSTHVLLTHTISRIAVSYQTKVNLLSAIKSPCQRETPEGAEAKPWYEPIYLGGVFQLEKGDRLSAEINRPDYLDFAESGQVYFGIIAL

| Binder | IC50, IL-23-dependent STAT3 activation (DB-STAT3Luc10 luciferase) [1] | GEOMEAN IC50, IL-23-dependent STAT3 activation (luciferase) [2] [nM] | GEOMEAN IC90, IL-23-dependent STAT3 activation (luciferase) [2] [nM] | Dual Phospho DB-pSTAT3 IC50 [3] [pM] | Dual Phospho DB-pSTAT3 IC90 [3] [pM] | hIL23 pSTAT3 DB assay IC50 [4] [pM] | hIL23 pSTAT3 DB assay IC90 [4] [pM] | CynoIL23 MSA IC50 [5] [nM] | CynoIL23 MSA IC90 [5] [nM] | huIL23 MSA IC50 [6] [nM] | huIL23 MSA IC90 [6] [nM] | IL23A pSTAT3 (MG) IC50 [7] [pM] | IL23A pSTAT3 (MG) IC90 [7] [pM] | HeLa IL8 Hi-Hu-TNF IC50 [9] [nM] | HeLa IL8 Hi-Hu-TNF IC90 [9] [nM] | HeLa IL8 Lo-Hu-TNF IC50 [9] [nM] | HeLa IL8 Cyno-TNF IC50 [10] [nM] | HeLa IL8 Cyno-TNF IC90 [10] [nM] | L929 TNF Cytotox IC50 [8] [nM] | L929 TNF Cytotox IC90 [8] [nM] | further results |
| --- | --- | --- | --- | --- | --- | --- | --- | --- | --- | --- | --- | --- | --- | --- | --- | --- | --- | --- | --- | --- | --- |
| Compound G (bispecific antibody) chain 1: EIVLTQSPATLSLSPGERATLSCRASQSVYSYLAWYQQKPGQAPRLLIYDASNRATGIPARFSGSGSGTDFTLTISSLEPEDFAVYYCQQRSNWPPFTFGPGTKVDIKGGGSGGGGQVQLVQSGAEVKKPGSSVKVSCKASGYTFTDQTIHWMRQAPGQGLEWIGYIYPRDDSPKYNENFKGKVTITADKSTSTAYMELSSLRSEDTAVYYCAIPDRSGYAWFIYWGQGTLVTVSSLGGGSGASTKGPSVFPLAPSSKSTSGGTAALGCLVKDYFPEPVTVSWNSGALTSGVHTFPAVLQSSGLYSLSSVVTVPSSSLGTQTYICNVNHKPSNTKVDKRVEPKSCDKTHTCPPCPAPEAAGGPSVFLFPPKPKDTLYITREPEVTCVVVDVSHEDPEVKFNWYVDGVEVHNAKTKPREEQYNSTYRVVSVLTVLHQDWLNGKEYKCKVSNKALPAPIEKTISKAKGQPREPQVYTLPPSREEMTKNQVSLTCLVKGFYPSDIAVEWESNGQPENNYKTTPPVLDSDGSFFLYSKLTVDKSRWQQGNVFSCSVMHEALHNHYTQKSLSLSPGK chain 2: DIQMTQSPSSLSASVGDRVTITCKASRDVAIAVAWYQQKPGKVPKLLIYWASTRHTGVPSRFSGSGSRTDFTLTISSLQPEDVADYFCHQYSSYPFTFGSGTKLEIKGGGSGGGGQVQLVESGGGVVQPGRSLRLSCAASGFIFSSYAMHWVRQAPGNGLEWVAFMSYDGSNKKYADSVKGRFTISRDNSKNTLYLQMNSLRAEDTAVYYCARDRGIAAGGNYYYYGMDVWGQGTTVTVSSLGGGSGRTVAAPSVFIFPPSDEQLKSGTASVVCLLNNFYPREAKVQWKVDNALQSGNSQESVTEQDSKDSTYSLSSTLTLSKADYEKHKVYACEVTHQGLSSPVTKSFNRGEC | 0.22 nM | 0.203 | 0.831 |  |  |  |  |  |  |  |  |  |  |  |  |  |  |  |  |  | IC90, IL-23-dependent STAT3 activation (DB-STAT3Luc10 luciferase) [1]: 1.15 nM; First test IC50, IL-23-dependent STAT3 activation (luciferase) [2]: 0.187 nM |
| Compound F (bispecific antibody) chain 1: DIQMTQSPSSLSASVGDRVTITCKASRDVAIAVAWYQQKPGKVPKLLIYWASTRHTGVPSRFSGSGSRTDFTLTISSLQPEDVADYFCHQYSSYPFTFGSGTKLEIKGGGSGGGGQVQLVESGGGVVQPGRSLRLSCAASGFIFSSYAMHWVRQAPGNGLEWVAFMSYDGSNKKYADSVKGRFTISRDNSKNTLYLQMNSLRAEDTAVYYCARDRGIAAGGNYYYYGMDVWGQGTTVTVSSFNRGESASTKGPSVFPLAPSSKSTSGGTAALGCLVKDYFPEPVTVSWNSGALTSGVHTFPAVLQSSGLYSLSSVVTVPSSSLGTQTYICNVNHKPSNTKVDKRVEPKSCDKTHTCPPCPAPEAAGGPSVFLFPPKPKDTLYITREPEVTCVVVDVSHEDPEVKFNWYVDGVEVHNAKTKPREEQYNSTYRVVSVLTVLHQDWLNGKEYKCKVSNKALPAPIEKTISKAKGQPREPQVYTLPPSREEMTKNQVSLTCLVKGFYPSDIAVEWESNGQPENNYKTTPPVLDSDGSFFLYSKLTVDKSRWQQGNVFSCSVMHEALHNHYTQKSLSLSPGK chain 2: EIVLTQSPATLSLSPGERATLSCRASQSVYSYLAWYQQKPGQAPRLLIYDASNRATGIPARFSGSGSGTDFTLTISSLEPEDFAVYYCQQRSNWPPFTFGPGTKVDIKGGGSGGGGQVQLVQSGAEVKKPGSSVKVSCKASGYTFTDQTIHWMRQAPGQGLEWIGYIYPRDDSPKYNENFKGKVTITADKSTSTAYMELSSLRSEDTAVYYCAIPDRSGYAWFIYWGQGTLVTVSSVEPKSSRTVAAPSVFIFPPSDEQLKSGTASVVCLLNNFYPREAKVQWKVDNALQSGNSQESVTEQDSKDSTYSLSSTLTLSKADYEKHKVYACEVTHQGLSSPVTKSFNRGEC |  |  |  | 360 | 980 | 260 | 600 | 0.069 | 1.5 | 0.17 | 2.3 | 90 | 650 | 0.35 | 0.66 | 0.0079 | 0.19 | 0.74 | 0.0025 | 0.01 | HeLa IL8 Lo-Hu-TNF IC90 [9]: 0.039 nM; TNF-IL8 Whole Blood IC50 [11]: 0.31 nM; TNF-IL8 Whole Blood IC90 [11]: 0.45 nM; Dual Phospho Jurkat-pNf-Kb IC50 [12]: 280 pM; Dual Phospho Jurkat-pNf-Kb IC90 [12]: 760 pM |

Second part, led by results:

| IC50, IL-23-dependent STAT3 activation (DB-STAT3Luc10 luciferase) [1] | GEOMEAN IC50, IL-23-dependent STAT3 activation (luciferase) [2] [nM] | GEOMEAN IC90, IL-23-dependent STAT3 activation (luciferase) [2] [nM] | Dual Phospho DB-pSTAT3 IC50 [3] [pM] | Dual Phospho DB-pSTAT3 IC90 [3] [pM] | hIL23 pSTAT3 DB assay IC50 [4] [pM] | hIL23 pSTAT3 DB assay IC90 [4] [pM] | CynoIL23 MSA IC50 [5] [nM] | CynoIL23 MSA IC90 [5] [nM] | huIL23 MSA IC50 [6] [nM] | huIL23 MSA IC90 [6] [nM] | IL23A pSTAT3 (MG) IC50 [7] [pM] | IL23A pSTAT3 (MG) IC90 [7] [pM] | HeLa IL8 Hi-Hu-TNF IC50 [9] [nM] | HeLa IL8 Hi-Hu-TNF IC90 [9] [nM] | HeLa IL8 Lo-Hu-TNF IC50 [9] [nM] | HeLa IL8 Cyno-TNF IC50 [10] [nM] | HeLa IL8 Cyno-TNF IC90 [10] [nM] | Binder | L929 TNF Cytotox IC50 [8] [nM] | L929 TNF Cytotox IC90 [8] [nM] | further results |
| --- | --- | --- | --- | --- | --- | --- | --- | --- | --- | --- | --- | --- | --- | --- | --- | --- | --- | --- | --- | --- | --- |
| 0.0965 nM and 0.104 nM and 0.0803 nM | 0.0931 | 0.191 | 89 | 230 | 160 | 310 | 0.017 | 0.24 | 0.053 | 0.35 | 35 | 140 |  |  |  |  |  | Control Antibody 3 (IL23 monoclonal antibody) (antibody, V domains shown) VH: QVQLVQSGAEVKKPGSSVKVSCKASGYTFTDQTIHWMRQAPGQGLEWIGYIYPRDDSPKYNENFKGKVTITADKSTSTAYMELSSLRSEDTAVYYCAIPDRSGYAWFIYWGQGTLVTVSS VL: DIQMTQSPSSLSASVGDRVTITCKASRDVAIAVAWYQQKPGKVPKLLIYWASTRHTGVPSRFSGSGSRTDFTLTISSLQPEDVADYFCHQYSSYPFTFGSGTKLEIK |  |  |  |
|  |  |  | 340 | 630 | 300 | 620 | 0.097 | 1.5 | 0.2 | 1.4 | 69 | 480 | 0.41 | 0.81 | 0.0092 | 0.21 | 0.81 | Compound P (bispecific antibody) chain 1: not shown chain 2: EIVLTQSPATLSLSPGERATLSCRASQSVYSYLAWYQQKPGQAPRLLIYDASNRATGIPARFSGSGSGTDFTLTISSLEPEDFAVYYCQQRSNWPPFTFGPGTKVDIKGGGSGGGGQVQLVQSGAEVKKPGSSVKVSCKASGYTFTDQTIHWMRQAPGQGLEWIGYIYPRDDSPKYNENFKGKVTITADKSTSTAYMELSSLRSEDTAVYYCAIPDRSGYAWFIYWGQGTLVTVSSVEPKSSRTVAAPSVFIFPPSDEQLKSGTASVVCLLNNFYPREAKVQWKVDNALQSGNSQESVTEQDSKDSTYSLSSTLTLSKADYEKHKVYACEVTHQGLSSPVTKSFNRGEC | 0.0034 | 0.014 | HeLa IL8 Lo-Hu-TNF IC90 [9]: 0.036 nM; TNF-IL8 Whole Blood IC50 [11]: 0.29 nM; TNF-IL8 Whole Blood IC90 [11]: 0.42 nM; Dual Phospho Jurkat-pNf-Kb IC50 [12]: 290 pM; Dual Phospho Jurkat-pNf-Kb IC90 [12]: 340 pM |
|  |  |  |  |  |  |  |  |  |  |  |  |  |  |  |  | 0.28 | 1.2 | Control antibody 2 (TNFa monoclonal antibody) (antibody, V domains shown, Monoclonal antibody) VH: QVQLVESGGGVVQPGRSLRLSCAASGFIFSSYAMHWVRQAPGNGLEWVAFMSYDGSNKKYADSVKGRFTISRDNSKNTLYLQMNSLRAEDTAVYYCARDRGIAAGGNYYYYGMDVWGQGTTVTVSS VL: EIVLTQSPATLSLSPGERATLSCRASQSVYSYLAWYQQKPGQAPRLLIYDASNRATGIPARFSGSGSGTDFTLTISSLEPEDFAVYYCQQRSNWPPFTFGPGTKVDIK |  |  | EC50 [13]: 0.31 nM; EC50 [14]: 0.23 nM |
